# Source: the supplement of paper PMC10567573
# B1: CDC25A (parent)
# chain: KKFRTKSRTWAGEKSKREMYSRLK
# Variants of: B1
# Assay: protein stability index of a GFP-peptide fusion (GPS, HEK-293T) (PSI 1-6); higher = more stable
# Details: c terminus: a fixed tail appended
# 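Also: lentivirally expressed fusions sorted by FACS into six bins by GFP to DsRed ratio, PSI derived from sequencing read proportions per bin multiplied by bin number.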
row,Variant,protein stability index
1,KKFRTKSRTWAGEKSKREMYMRLK,3.36
2,KKFRTKSRTWAGEKSKREMYPRLK,2.99
3,KKFRTKSRTWAGEKSKREMYERLK,3.01
4,KKFRTKSRTWAGEKSKREMYYRLK,2.01
5,KKFRTKSRTWAGEKSKREMYTRLK,2.56
6,KKFRTKSRTWAGEKSKREMYNRLK,3.21
7,KKFRTKSRTWAGEKSKREMYGRLK,3.32
8,KKFRTKSRTWAGEKSKREMYHRLK,2.69
9,KKFRTKSRTWAGEKSKREMYDRLK,2.95
10,KKFRTKSRTWAGEKSKREMYCRLK,2.56
11,KKFRTKSRTWAGEKSKREMYLRLK,3.38
12,KKFRTKSRTWAGEKSKREMYIRLK,2.25
13,KKFRTKSRTWAGEKSKREMYKRLK,3.08
14,KKFRTKSRTWAGEKSKREMYRRLK,2.73
15,KKFRTKSRTWAGEKSKREMYFRLK,2.7
16,KKFRTKSRTWAGEKSKREMYARLK,2.97
17,KKFRTKSRTWAGEKSKREMYQRLK,2.54
18,KKFRTKSRTWAGEKSKREMYSDLK,2.49
19,KKFRTKSRTWAGEKSKREMYSTLK,3.41
20,KKFRTKSRTWAGEKSKREMYSGLK,3.92
21,KKFRTKSRTWAGEKSKREMYSALK,2.19
22,KKFRTKSRTWAGEKSKREMYSHLK,3.02
23,KKFRTKSRTWAGEKSKREMYSCLK,3.17
24,KKFRTKSRTWAGEKSKREMYSNLK,3.81

row,Variant,protein stability index
1,KKFRTKSRTWAGEKSKREMYSFLK,2.99
2,KKFRTKSRTWAGEKSKREMYSKLK,2.92
3,KKFRTKSRTWAGEKSKREMYSSLK,2.79
4,KKFRTKSRTWAGEKSKREMYSVLK,3.24
5,KKFRTKSRTWAGEKSKREMYSPLK,2.33
6,KKFRTKSRTWAGEKSKREMYSILK,2.01
7,KKFRTKSRTWAGEKSKREMYSMLK,3.13
8,KKFRTKSRTWAGEKSKREMYSLLK,2.82
9,KKFRTKSRTWAGEKSKREMYSQLK,2.83
10,KKFRTKSRTWAGEKSQREMYSRLK,3.71
11,KKFRTKSRTWAGEKSWREMYSRLK,2.1
12,KKFRTKSRTWAGEKSYREMYSRLK,2.38
13,KKFRTKSRTWAGEKSRREMYSRLK,1.22
14,KKFRTKSRTWAGEKSPREMYSRLK,3.11
15,KKFRTKSRTWAGEKSIREMYSRLK,2.28
16,KKFRTKSRTWAGEKSDREMYSRLK,3.24
17,KKFRTKSRTWAGEKSMREMYSRLK,3.99
18,KKFRTKSRTWAGEKSNREMYSRLK,3
19,KKFRTKSRTWAGEKSAREMYSRLK,2.62
20,KKFRTKSRTWAGEKSVREMYSRLK,2.78
21,KKFRTKSRTWAGEKSHREMYSRLK,3.56
22,KKFRTKSRTWAGEKSLREMYSRLK,3.16
23,KKFRTKSRTWAGEKSGREMYSRLK,2.79
24,KKFRTKSRTWAGEKSSREMYSRLK,3.04

row,Variant,protein stability index
1,KKFRTKSRTWAGEKSKQEMYSRLK,3.17
2,KKFRTKSRTWAGEKSKGEMYSRLK,2.99
3,KKFRTKSRTWAGEKSKVEMYSRLK,2.97
4,KKFRTKSRTWAGEKSKFEMYSRLK,2.86
5,KKFRTKSRTWAGEKSKPEMYSRLK,4.04
6,KKFRTKSRTWAGEKSKAEMYSRLK,2.77
7,KKFRTKSRTWAGEKSKYEMYSRLK,3.4
8,KKFRTKSRTWAGEKSKHEMYSRLK,3
9,KKFRTKSRTWAGEKSKNEMYSRLK,2.24
10,KKFRTKSRTWAGEKSKSEMYSRLK,3.08
11,KKFRTKSRTWAGEKSKLEMYSRLK,2.84
12,KKFRTKSRTWAGEKSKIEMYSRLK,3.25
13,KKFRTKSRTWAGEKSKKEMYSRLK,2.21
14,KKFRTKSRTWAGEKSKCEMYSRLK,3.34
15,KKFRTKSRTWAGEKSKTEMYSRLK,3.48
16,KKFRTKSRTWAGEKSKDEMYSRLK,3.6
17,KKFRTKSRTWAGEKSKRETYSRLK,3
18,KKFRTKSRTWAGEKSKREEYSRLK,3.79
19,KKFRTKSRTWAGEKSKREDYSRLK,4.05
20,KKFRTKSRTWAGEKSKREIYSRLK,2.8
21,KKFRTKSRTWAGEKSKREAYSRLK,3.13
22,KKFRTKSRTWAGEKSKREWYSRLK,2.77
23,KKFRTKSRTWAGEKSKREYYSRLK,3.24
24,KKFRTKSRTWAGEKSKREQYSRLK,4.14

row,Variant,protein stability index
1,KKFRTKSRTWAGEKSKRESYSRLK,4.21
2,KKFRTKSRTWAGEKSKREKYSRLK,4.05
3,KKFRTKSRTWAGEKSKRERYSRLK,3.44
4,KKFRTKSRTWAGEKSKRENYSRLK,4.2
5,KKFRTKSRTWAGEKSKRELYSRLK,2.7
6,KKFRTKSRTWAGEKSKREFYSRLK,3.53
7,KKFRTKSRTWAGEKSKREPYSRLK,3.41
8,KKFRTKSRTWAGEKSKREHYSRLK,3.54
9,KKFRTKSRTWMGEKSKREMYSRLK,2.14
10,KKFRTKSRTWWGEKSKREMYSRLK,2.61
11,KKFRTKSRTWVGEKSKREMYSRLK,2.74
12,KKFRTKSRTWKGEKSKREMYSRLK,2.7
13,KKFRTKSRTWRGEKSKREMYSRLK,2.25
14,KKFRTKSRTWYGEKSKREMYSRLK,2.82
15,KKFRTKSRTWQGEKSKREMYSRLK,3.28
16,KKFRTKSRTWLGEKSKREMYSRLK,2.5
17,KKFRTKSRTWSGEKSKREMYSRLK,4.42
18,KKFRTKSRTWNGEKSKREMYSRLK,2.91
19,KKFRTKSRTWPGEKSKREMYSRLK,3.98
20,KKFRTKSRTWTGEKSKREMYSRLK,3.22
21,KKFRTKSRTWAGECSKREMYSRLK,2.54
22,KKFRTKSRTWAGEPSKREMYSRLK,3.36
